The source of these data is patent publication US10111934.

In the test the target is IGF-I receptor (IGF-IR) on P6 cells, which overexpress IGF-IR (UniProt P08069). Put plainly: cell-based or functional assay.
Chain of UniProt P08069 (P08069 31-1367 limits assumed): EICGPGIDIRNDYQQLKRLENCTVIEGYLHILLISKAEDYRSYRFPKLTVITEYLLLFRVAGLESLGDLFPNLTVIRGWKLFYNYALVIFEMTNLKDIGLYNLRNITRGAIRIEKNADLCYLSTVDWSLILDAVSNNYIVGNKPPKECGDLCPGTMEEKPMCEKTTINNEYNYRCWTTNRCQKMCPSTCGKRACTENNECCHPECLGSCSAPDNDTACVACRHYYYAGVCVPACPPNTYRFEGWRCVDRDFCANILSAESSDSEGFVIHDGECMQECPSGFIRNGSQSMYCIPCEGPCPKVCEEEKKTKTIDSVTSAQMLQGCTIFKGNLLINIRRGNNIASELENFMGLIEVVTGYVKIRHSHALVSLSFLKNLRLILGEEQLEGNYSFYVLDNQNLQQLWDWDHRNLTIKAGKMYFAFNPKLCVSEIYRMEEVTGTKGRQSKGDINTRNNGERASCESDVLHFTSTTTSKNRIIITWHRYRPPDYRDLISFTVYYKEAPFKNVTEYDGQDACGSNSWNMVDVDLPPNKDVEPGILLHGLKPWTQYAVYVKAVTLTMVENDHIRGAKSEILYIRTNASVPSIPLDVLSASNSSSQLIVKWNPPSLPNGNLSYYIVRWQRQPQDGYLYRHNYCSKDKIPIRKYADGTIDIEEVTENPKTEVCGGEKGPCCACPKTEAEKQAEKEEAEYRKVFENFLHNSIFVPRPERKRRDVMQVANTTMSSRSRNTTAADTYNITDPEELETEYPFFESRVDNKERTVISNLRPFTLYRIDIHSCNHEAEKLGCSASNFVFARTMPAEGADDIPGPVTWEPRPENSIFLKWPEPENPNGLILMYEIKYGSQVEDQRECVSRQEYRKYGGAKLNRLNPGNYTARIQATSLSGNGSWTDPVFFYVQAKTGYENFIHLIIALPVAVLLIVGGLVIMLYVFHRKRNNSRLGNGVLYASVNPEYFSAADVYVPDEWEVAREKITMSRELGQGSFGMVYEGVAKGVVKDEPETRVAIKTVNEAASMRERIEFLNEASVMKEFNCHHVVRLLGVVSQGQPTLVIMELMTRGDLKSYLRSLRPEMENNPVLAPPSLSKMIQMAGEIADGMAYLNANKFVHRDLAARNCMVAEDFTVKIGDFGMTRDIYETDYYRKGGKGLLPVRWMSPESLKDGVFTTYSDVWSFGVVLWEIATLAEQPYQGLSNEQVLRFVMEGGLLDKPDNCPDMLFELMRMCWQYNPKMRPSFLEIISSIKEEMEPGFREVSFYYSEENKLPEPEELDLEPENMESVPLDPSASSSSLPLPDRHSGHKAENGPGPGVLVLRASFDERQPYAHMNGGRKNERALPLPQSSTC

As for “mature IGF-I (murine), produced from the IGF-ISt construct (from UniProt P05017 49-118) (ligand)”, the KIRA (rel to IStop) came to 1; the KIRA Raw (IGF-IR phosphorylation, KIRA assay on P6 cells, conditioned medium) amounted to 39; the KIRA/Total IGF came out at 47.9.

As for “IGF-IKRR (IGF-IA with K68G, R71A, R77A, cleavage blocked) (from UniProt P05017 49-153) (ligand)”, the IGF-IR phosphorylation per IGF molecule against mature IGF-I (KIRA, 4 experiments) was 30 % less; the KIRA (rel to IStop) amounted to 0.61; the KIRA Raw (IGF-IR phosphorylation, KIRA assay on P6 cells, conditioned medium) turned out to be 23.6; the KIRA/Total IGF was determined as 29.3.

On to “IGF-IA (murine class I IGF-IA, wild-type construct) (from UniProt P05017 49-153) (ligand)”, for which the IGF-IR phosphorylation per IGF molecule against mature IGF-I (KIRA, 4 experiments) amounted to 30 % less; the KIRA (rel to IStop) was determined as 0.59; the KIRA Raw (IGF-IR phosphorylation, KIRA assay on P6 cells, conditioned medium) worked out at 45.8; the KIRA/Total IGF was 28.2.

With “gly-pro-IGF-I (glycosylated pro-IGF-IA) (from UniProt P05017 1-153) (ligand)”, the calculated IGF-IR activation (KIRA, FIG. 5B), potency against mature IGF-I (fold less potent) is 2; the calculated relative IGF-IR activation by gly-pro-IGF-I (GP), mature IGF-I set to 1.0, from the IA equation is 0.3; the calculated relative IGF-IR activation by gly-pro-IGF-I (GP), mature IGF-I set to 1.0, from the KRR equation was 0.47; the calculated relative IGF-IR activation by gly-pro-IGF-I (GP), mature IGF-I set to 1.0, mean of the IA and KRR equations is 0.38.

The substance “IGF-IKRRNN (IGF-IA with K68G, R71A, R77A, N92D, N100D; produces only pro-IGF-I) (from UniProt P05017 49-153) (ligand)” displayed an IGF-IR response in Kinase Receptor Activation (KIRA) assays, against mature IGF-I of 30 % more; a KIRA (rel to IStop) of 0.93; a KIRA Raw (IGF-IR phosphorylation, KIRA assay on P6 cells, conditioned medium) of 42.6; a KIRA/Total IGF of 44.4.

In turn, “IGF-INN (IGF-IA with N92D and N100D, glycosylation blocked) (from UniProt P05017 49-153) (ligand)” yielded a KIRA (rel to IStop) of 0.88; a KIRA Raw (IGF-IR phosphorylation, KIRA assay on P6 cells, conditioned medium) of 65.8; a KIRA/Total IGF of 42.4.

Turning to “pro-IGF-I (non-glycosylated pro-IGF-IA: mature IGF-I plus EA-peptide) (from UniProt P05017 1-153) (ligand)”, the calculated relative IGF-IR activation by pro-IGF-I (P), mature IGF-I set to 1.0, from the NN equation was 0.84; the calculated relative IGF-IR activation by pro-IGF-I (P), mature IGF-I set to 1.0, mean of the NN and KRRNN equations was 0.89.
